Laboratory results from the Human Domainome abundance scans (Beltran et al. 2025).
± gives the uncertainty stated by the source.

B1: Zinc finger homeobox protein 4, residues 2183 to 2238; numbered along this chain, Q86UP3 (parent)
chain: SSRTRFTDYQLRVLQDFFDTNAYPKDDEIEQLSTVLNLPTRVIVVWFQNARQKARK
B2: Tyrosine-protein kinase BTK, residues 215 to 273; numbered along this chain, Q06187 (parent)
chain: ELKKVVALYDYMPMNANDLQLRKGDEYFILEESNLPWWRARDKNGQEGYIPSNYVTEAE

Variants of: B1
Experiment: abundance fitness (aPCA) (normalised: wild type 0, dead -1); higher = more abundant; growth selection in yeast, the domain comes from the species named
Details: Homo sapiens

Abundance fitness, by site and new letter:
S2: K 0.053 ± 0.19, Q 0.262 ± 0.16, P -0.012 ± 0.12, I -0.059 ± 0.13, H -0.106 ± 0.16, L -0.144 ± 0.098, Y -0.07 ± 0.14, A -0.407 ± 0.094, W -0.477 ± 0.17, F -0.229 ± 0.14, N 0.125 ± 0.15, G -0.004 ± 0.077, M 0.102 ± 0.17, T 0.151 ± 0.13, E 0.195 ± 0.11, V -0.043 ± 0.087, C 0.197 ± 0.096, R -0.106 ± 0.091, D 0.254 ± 0.11
Y9: A 0.167 ± 0.086, M 0.025 ± 0.11, I -0.351 ± 0.3, Q 0.283 ± 0.1, R 0.11 ± 0.076, E 0.081 ± 0.098, T 0.167 ± 0.1, D -0.128 ± 0.13, V -0.038 ± 0.081, N 0.057 ± 0.13, S 0.14 ± 0.099, K 0.318 ± 0.12, W 0.02 ± 0.11, C -0.102 ± 0.13, F 0.261 ± 0.19, G 0.062 ± 0.072
F6: E -0.344 ± 0.17, I -0.09 ± 0.091, P -0.697 ± 0.1, C -0.094 ± 0.095, K -0.522 ± 0.17, T -0.266 ± 0.086, R -0.726 ± 0.099, V -0.133 ± 0.078, L -0.122 ± 0.071, N -0.375 ± 0.11, A -0.654 ± 0.1, Y -0.124 ± 0.1, Q -0.568 ± 0.13, H -0.328 ± 0.11, W -0.257 ± 0.13, D -0.09 ± 0.12, G -0.335 ± 0.092, M 0.111 ± 0.1
D8: I -0.511 ± 0.17, C -0.136 ± 0.14, A -0.106 ± 0.082, R -0.309 ± 0.094, S -0.315 ± 0.1, V -0.282 ± 0.079, W -0.58 ± 0.097, E -0.151 ± 0.099, F -0.361 ± 0.19, Y -0.662 ± 0.14, T -0.257 ± 0.11, L -0.229 ± 0.078, M -0.125 ± 0.1, N -0.351 ± 0.12, Q 0.103 ± 0.12, H 0.124 ± 0.17, P 0.096 ± 0.11, G -0.225 ± 0.078
T4: V -0.602 ± 0.11, E -0.368 ± 0.13, C -0.446 ± 0.13, K -0.571 ± 0.15, N 0.047 ± 0.14, G -0.328 ± 0.092, F -0.182 ± 0.16, D 0.015 ± 0.16, A -0.698 ± 0.14, H 0.096 ± 0.13, L 0.072 ± 0.083, M 0.392 ± 0.11, W -0.433 ± 0.12, P -0.109 ± 0.11, Y 0.323 ± 0.16, R -0.533 ± 0.08, Q -0.269 ± 0.16, S 0.019 ± 0.087
R12: M -0.631 ± 0.17, L -0.309 ± 0.08, F -0.81 ± 0.16, N -0.017 ± 0.19, A -0.263 ± 0.092, I -0.623 ± 0.17, P -0.608 ± 0.14, H -0.166 ± 0.15, G -0.147 ± 0.083, C -0.732 ± 0.13
T7: C -0.586 ± 0.17, G -0.333 ± 0.086, P -0.368 ± 0.16, V -0.299 ± 0.11, R -0.67 ± 0.093, W -0.719 ± 0.15, D -0.081 ± 0.18, Y -0.574 ± 0.32, L -0.384 ± 0.12, Q -0.27 ± 0.17, M -0.278 ± 0.14, K -0.455 ± 0.18, A -0.14 ± 0.11, S -0.014 ± 0.11, H -0.597 ± 0.41
S1: T -0.009 ± 0.16, Y -0.241 ± 0.17, A 0.062 ± 0.2, C 0.092 ± 0.18, F 0.106 ± 0.2, W -1.16 ± 0.35, M 0.045 ± 0.28, G 0.276 ± 0.15, I -0.026 ± 0.34, P -0.575 ± 0.29
R5: P 0.001 ± 0.12, H 0.194 ± 0.15, M 0.309 ± 0.15, Y 0.213 ± 0.15, N 0.358 ± 0.14, K 0.195 ± 0.2, Q -0.241 ± 0.24, L 0.193 ± 0.1, I 0.238 ± 0.13, V 0.133 ± 0.13, D 0.338 ± 0.29, G -0.109 ± 0.11, W -0.11 ± 0.17, E 0.218 ± 0.22, T 0.22 ± 0.13, C 0.272 ± 0.11
L11: C -0.341 ± 0.25, P -1.19 ± 0.34, H -0.204 ± 0.16, A -0.108 ± 0.24, I -0.031 ± 0.17, D 0.066 ± 0.27, R -0.26 ± 0.17, G -0.016 ± 0.21, E 0.095 ± 0.25, T -0.063 ± 0.2, F -0.011 ± 0.12, M -0.061 ± 0.2, Y -0.194 ± 0.21, S 0.138 ± 0.14, N 0.053 ± 0.2, V -0.024 ± 0.16
R3: N 0.364 ± 0.13, P 0.09 ± 0.12, M 0.344 ± 0.12, I 0.489 ± 0.16, K 0.31 ± 0.12, V 0.334 ± 0.08, F 0.32 ± 0.2, Q 0.053 ± 0.11, A 0.358 ± 0.083, T 0.368 ± 0.13, L 0.358 ± 0.089, D 0.343 ± 0.14, C 0.484 ± 0.099, Y 0.198 ± 0.16, E 0.201 ± 0.11, W 0.253 ± 0.094, G 0.297 ± 0.065, H 0.367 ± 0.12
Q10: L -0.736 ± 0.075, K -0.512 ± 0.13, F -0.928 ± 0.12, G -0.69 ± 0.084, Y -0.787 ± 0.09, D -0.454 ± 0.087, T -0.176 ± 0.076, C -0.395 ± 0.082, I -0.391 ± 0.091, R -0.657 ± 0.079, S -0.335 ± 0.067, W -0.826 ± 0.13, M -0.14 ± 0.11, V -0.547 ± 0.076, H -0.118 ± 0.076, E -0.297 ± 0.11, A -0.459 ± 0.073

Variants of: B2
Experiment: as above
Details: Homo sapiens

Abundance fitness: each site, then its substitutions
E57: Q -0.024 ± 0.043, Y -0.018 ± 0.083, A -0.025 ± 0.042, H 0.023 ± 0.071, I -0.133 ± 0.13, M -0.022 ± 0.056, L -0.057 ± 0.037, W -0.051 ± 0.042, F -0.026 ± 0.063, D -0.072 ± 0.074, G 0.01 ± 0.048, S -0.009 ± 0.035, K -0.047 ± 0.053, V 0.03 ± 0.044, N 0.088 ± 0.069, R -0.065 ± 0.033, T -0.006 ± 0.051
A58: R -0.03 ± 0.041, C -0.058 ± 0.06, F -0.016 ± 0.073, G -0.01 ± 0.036, Y -0.016 ± 0.075, V 0.001 ± 0.037, T -0.051 ± 0.053, E 0.08 ± 0.057, I -0.223 ± 0.071, W -0.11 ± 0.083, K -0.005 ± 0.086, N -0.012 ± 0.073, D -0.092 ± 0.06, L -0.113 ± 0.039, P -0.001 ± 0.064, Q -0.072 ± 0.077
E59: C -0.061 ± 0.073, D -0.128 ± 0.086, L -0.097 ± 0.06, K -0.008 ± 0.08, I -0.014 ± 0.088, Y -0.116 ± 0.097, M -0.138 ± 0.083, Q -0.015 ± 0.1, P -0.025 ± 0.1, V 0.023 ± 0.075, T -0.012 ± 0.083, H -0.054 ± 0.13, G 0.042 ± 0.056, F -0.072 ± 0.1, W -0.081 ± 0.064, S 0.067 ± 0.053
T56: A 0.033 ± 0.038, Q 0.043 ± 0.067, M 0.025 ± 0.058, F -0.169 ± 0.068, P -0.733 ± 0.07, N -0.094 ± 0.087, G 0.08 ± 0.055, Y -0.191 ± 0.064, L -0.086 ± 0.031, W -0.044 ± 0.055, H 0.014 ± 0.087, V 0.014 ± 0.038, R 0.012 ± 0.037, S -0.03 ± 0.04, D 0.021 ± 0.062, C -0.032 ± 0.092, I -0.184 ± 0.071
S52: Q -0.032 ± 0.06, T -0.058 ± 0.051, W -0.03 ± 0.049, D -0.232 ± 0.063, R -0.008 ± 0.038, M 0.019 ± 0.07, V -0.023 ± 0.044, P -0.005 ± 0.055, A -0.009 ± 0.047, G -0.028 ± 0.036, E -0.065 ± 0.066, K 0.088 ± 0.071, I -0.053 ± 0.066, N -0.026 ± 0.072, F -0.108 ± 0.049, Y -0.226 ± 0.067
P51: S -0.186 ± 0.043, Y -0.04 ± 0.14, W -0.164 ± 0.045, Q -0.128 ± 0.055, R -0.069 ± 0.033, V -0.379 ± 0.038, T -0.528 ± 0.067, N -0.102 ± 0.084, M -0.123 ± 0.055
Y54: A 0.02 ± 0.05, D -0.562 ± 0.094, T -0.235 ± 0.059, M 0.035 ± 0.066, F 0.101 ± 0.066, H -0.009 ± 0.066, L -0.109 ± 0.034, V -0.203 ± 0.048, S 0.022 ± 0.037, N -0.266 ± 0.065, R -0.078 ± 0.033, W -0.074 ± 0.06, Q -0.153 ± 0.066, K -0.159 ± 0.07, I -0.228 ± 0.075, C -0.037 ± 0.05, G 0.037 ± 0.042, P -0.93 ± 0.099
V55: C -0.083 ± 0.048, R -0.905 ± 0.063, S -0.695 ± 0.05, D -0.891 ± 0.11, G -0.827 ± 0.056, Y -0.836 ± 0.15, M -0.284 ± 0.079, E -0.617 ± 0.07, W -0.784 ± 0.069, H -0.852 ± 0.11, T -0.12 ± 0.06, K -0.833 ± 0.12, Q -0.945 ± 0.16, L -0.292 ± 0.042, N -0.808 ± 0.21, F -0.318 ± 0.061, A -0.32 ± 0.05
N53: D -0.043 ± 0.065, R -0.03 ± 0.04, C -0.164 ± 0.077, I -0.238 ± 0.091, Y -0.202 ± 0.071, E -0.016 ± 0.041, V -0.004 ± 0.038, S -0.006 ± 0.04, L -0.099 ± 0.037, T -0.054 ± 0.052, K -0.025 ± 0.052, F -0.137 ± 0.066, H -0.123 ± 0.11, Q -0.041 ± 0.067, A -0.005 ± 0.044, M -0.079 ± 0.048, W -0.137 ± 0.054
